Substitutions are numbered along the chain they refer to.
T1: IGSF11 (VSIG3), construct used in SPR and BLI not stated (UniProt Q5DX21 23-241, limits assumed)
T1 sequence (looked up): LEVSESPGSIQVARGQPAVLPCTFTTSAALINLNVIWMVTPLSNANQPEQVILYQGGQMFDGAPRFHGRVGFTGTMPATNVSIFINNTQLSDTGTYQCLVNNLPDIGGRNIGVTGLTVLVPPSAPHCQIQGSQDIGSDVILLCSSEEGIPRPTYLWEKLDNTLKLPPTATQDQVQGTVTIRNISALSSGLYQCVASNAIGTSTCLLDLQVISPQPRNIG

T2: extracellular domain (ECD) of human IGSF11 (VSIG3), HIS-tagged (human, UniProt Q5DX21 23-241, biotinylated in the ELISA of Example 4 (site not stated))
T2 construct: also called HIS-IGSF11; IGSF11-HIS; not shown: HIS6 tag
T2 sequence: T1 sequence (looked up)

B1: B-002 (chain-swapped, human IgG1 format) (antibody, V domains shown)
VH: EVQLVESGGGLIQPGGSLRLSCAASGFTVSSNYMSWVRQAPGKGLEWVSVIYSGGSTYYADSVKGRFTISRDNSKNTLYLQMNSLRAEDTAVYYCARGNPYYYGDLQVNFDYWGQGTLVTVSS
VL: QAVVTQEPSLTVSPGGTVTLTCASSTGAVTSGYYPNWFQQKPGQAPRALIYSTSNKHSWTPARFSGSLLGGKAALTLSGVQPEDEAEYYCLLYYGGAWVFGGGTKLTVL
notes: VH of A-006 with VL of A-012; IgG1 format; also called B2; Chains-B-002
B2: A-006 (human IgG1 format) (antibody, V domains shown)
VH: B1 VH
VL: B1 VL with A48P, E83D, A97D
notes: human IgG1 format
B3: A-012 (human IgG1 format) (antibody, V domains shown)
VH: B1 VH with V5L, A24V
VL: B1 VL
notes: human IgG1 format
B4: A-013 (human IgG1 format) (antibody, V domains shown)
VH: B1 VH
VL: B1 VL with G32A, E87D
notes: human IgG1 format
B5: A-011 (human IgG1 format) (antibody, V domains shown)
VH: QVQLVESGGGVVQPGRSLRLSCAASGFTFSSYAMHWVRQAPGKGLEWVAVISYDGSNKYYADSVKGRFTISRDNSKNTLYLQMNSLRAEDTAVYYCAEGGALNYYGMDVWGQGTTVTVSS
VL: SSELTQDPGVSVALGQTVRITCQGDSLRHFYATWYQQKPGQAPILVIYGKNNRPSGIPDRFSGSSSEDTASLTITGAQAEDEADYYCQSRDPRNNHLIFGGGTKLIVL
notes: human IgG1 format
B6: B-001 (chain-swapped, human IgG1 format) (antibody, V domains shown)
VH: B1 VH with V5L, A24V
VL: B1 VL with G32A, E87D
notes: VH of A-012 with VL of A-013; IgG1 format; also called B1; Chains-B-001
B7: human IGSF11 (VSIG3) expressed on the surface of cells (receptor)
chain: LEVSESPGSIQVARGQPAVLPCTFTTSAALINLNVIWMVTPLSNANQPEQVILYQGGQMFDGAPRFHGRVGFTGTMPATNVSIFINNTQLSDTGTYQCLVNNLPDIGGRNIGVTGLTVLVPPSAPHCQIQGSQDIGSDVILLCSSEEGIPRPTYLWEKLDNTLKLPPTATQDQVQGTVTIRNISALSSGLYQCVASNAIGTSTCLLDLQVISPQPRNIGLIAGAIGTGAVIIIFCIALILGAFFYWRSKNKEEEEEEIPNEIREDDLPPKCSSAKAFHTEISSSDNNTLTSSNAYNSRYWSNNPKVHRNTESVSHFSDLGQSFSFHSGNANIPSIYANGTHLVPGQHKTLVVTANRGSSPQVMSRSNGSVSRKPRPPHTHSYTISHATLERIGAVPVMVPAQSRAGSLV
notes: one molecule for all cell lines; the cell line is named under assay; also called IGSF11-expressing cells; HEK-OE
B8: B-005 (chain-swapped, human IgG1 format) (antibody, V domains shown)
VH: B1 VH with V5L, A24V
VL: B1 VL with L20P, A23G, Y33N, Y34L, F64I
notes: VH of A-012 with VL of A-002; IgG1 format; also called B5; Chains-B-005
B9: B-003 (chain-swapped, human IgG1 format) (antibody, V domains shown)
VH: B1 VH with V5L, A24V
VL: B1 VL with G16E, K41R, H57D
notes: VH of A-012 with VL of A-005; IgG1 format; also called B3; Chains-B-003
B10: B-004 (chain-swapped, human IgG1 format) (antibody, V domains shown)
VH: B1 VH with V5L, A24V
VL: B1 VL with A48P, E83D, A97D
notes: VH of A-012 with VL of A-006; IgG1 format; also called B4; Chains-B-004
B11: B-008 (chain-swapped, human IgG1 format) (antibody, V domains shown)
VH: B1 VH
VL: B1 VL with L20P, A23G, Y33N, Y34L, F64I
notes: VH of A-006 with VL of A-002; IgG1 format; also called B8; Chains-B-008
B12: B-007 (chain-swapped, human IgG1 format) (antibody, V domains shown)
VH: B1 VH
VL: B1 VL with G32A, E87D
notes: VH of A-006 with VL of A-013; IgG1 format; also called B7; Chains-B-007

Target: B7
Test: FACS, IgG1 format, DMS 273 cells

For B1, which EC50 is on record?
Its EC50 is greater than 50 nM.

For B2, which EC50 is on record?
Its EC50 is greater than 50 nM.

How did the EC50 turn out when B3 was run?
The EC50 was 10 to 50 nM.

B4 was tested. Which EC50 did it give?
The EC50 was greater than 50 nM.

Target: T1, IGSF11 (VSIG3), construct used in SPR …
Test: BLI (Octet), IgG1 format; IGSF11 construct not stated

B5 was tested. Which Kd did it give?
Its Kd is 10 to 20 nM.

With B2 as the binder, how does the Kd read?
Its Kd is 1 to 10 nM.

With B3 as the binder, how does the Kd read?
The Kd was 1 to 10 nM.

Target: T1, IGSF11 (VSIG3), construct used in SPR …
Test: SPR (Biacore), IgG1 format; IGSF11 construct not stated

With B5 as the binder, how does the Kd read?
Its Kd is 250 to 500 nM.

Which Kd does the source give for B2 here?
Its Kd is 250 to 500 nM.

Which Kd does the source give for B3 here?
Its Kd is 250 to 500 nM.

For B4, which Kd is on record?
The Kd was 100 to 250 nM.

Target: T1, IGSF11 (VSIG3), construct used in SPR …
Test: SPR (Biacore), chain-swapped IgG1; IGSF11 construct not stated

For B1, which Kd is on record?
The Kd was 100 to 250 nM.

B6 was tested. Which Kd did it give?
The Kd was 250 to 500 nM.

Target: B7
Test: FACS, IgG1 format, recombinant HEK cells expressing IGSF11 (HEK-OE)

Which EC50 does the source give for B5 here?
Its EC50 is greater than 50 nM.

Which EC50 does the source give for B1 here?
Its EC50 is 10 to 50 nM.

For B6, which EC50 is on record?
Its EC50 is 10 to 50 nM.

With B2 as the binder, how does the EC50 read?
The EC50 was 10 to 50 nM.

B3 was tested. Which EC50 did it give?
Its EC50 is 10 to 50 nM.

With B4 as the binder, how does the EC50 read?
The EC50 was 10 to 50 nM.

Target: B7
Test: FACS on DMS 273 cells treated with scrambled control siRNA (SC)

Which percentage binding does the source give for B5 here?
The percentage binding was 6.95%.

For B1, which percentage binding is on record?
Its percentage binding is 80.1%.

For B2, which percentage binding is on record?
The percentage binding was 81.1%.

B3 was tested. Which percentage binding did it give?
The percentage binding was 75.8%.

Target: B7
Test: FACS on M579-A2-luc cells treated with scrambled control siRNA (SC)

Which percentage binding does the source give for B5 here?
The percentage binding was 2.05%.

With B1 as the binder, how does the percentage binding read?
Its percentage binding is 70.7%.

With B2 as the binder, how does the percentage binding read?
Its percentage binding is 75.3%.

Which percentage binding does the source give for B3 here?
The percentage binding was 65.4%.

Target: CL-11 (C)
Test: FACS on CL-11 cells (do not express IGSF11; negative cell line) treated with IGSF11 siRNA (KD)

With B5 as the binder, how does the percentage binding read?
The percentage binding was 4.86%.

For B1, which percentage binding is on record?
The percentage binding was 4.54%.

With B2 as the binder, how does the percentage binding read?
The percentage binding was 3.04%.

B3 was tested. Which percentage binding did it give?
The percentage binding was 3.93%.

Target: B7
Test: FACS on DMS 273 cells treated with IGSF11 siRNA (KD: target knocked down, specificity control)

How did the percentage binding turn out when B5 was run?
Its percentage binding is 3.4%.

With B1 as the binder, how does the percentage binding read?
The percentage binding was 8.68%.

With B2 as the binder, how does the percentage binding read?
Its percentage binding is 5.72%.

B3 was tested. Which percentage binding did it give?
Its percentage binding is 4.77%.

Target: T2, extracellular domain (ECD) of human …
Test: ELISA, coated IGSF11-HIS, IgG1 format; EC50 grade (* >1 nM, ** 0.05-1 nM, *** 0.02-0.05 nM, **** <0.02 nM)

Which EC50 does the source give for B5 here?
The EC50 was less than 0.02 nM.

B2 was tested. Which EC50 did it give?
Its EC50 is less than 0.02 nM.

Which EC50 does the source give for B3 here?
Its EC50 is 0.02 to 0.05 nM.

Which EC50 does the source give for B4 here?
The EC50 was less than 0.02 nM.

Target: B7
Test: FACS on M579-A2-luc cells treated with IGSF11 siRNA (KD: target knocked down, specificity control)

Which percentage binding does the source give for B5 here?
The percentage binding was 2.41%.

Which percentage binding does the source give for B1 here?
The percentage binding was 2.77%.

With B2 as the binder, how does the percentage binding read?
Its percentage binding is 2.59%.

With B3 as the binder, how does the percentage binding read?
The percentage binding was 2.35%.

Target: CL-11 (C)
Test: FACS on CL-11 cells (do not express IGSF11; negative cell line) treated with scrambled control siRNA (SC)

How did the percentage binding turn out when B5 was run?
The percentage binding was 2.87%.

For B1, which percentage binding is on record?
Its percentage binding is 3%.

How did the percentage binding turn out when B2 was run?
The percentage binding was 2.31%.

B3 was tested. Which percentage binding did it give?
Its percentage binding is 5.11%.

Target: T3, A-015 (scFv-Fc format, mouse IgG2A Fc)
T3 construct: scFv genetically fused to mouse IgG2A Fc, expressed in HEK293; also called scFv-Fc-format of antibody A-015; anti-IGSF11 scFv-Fc (mouse IgG2A)
T3 sequence (VH, as listed by the source, chain 1 of 2): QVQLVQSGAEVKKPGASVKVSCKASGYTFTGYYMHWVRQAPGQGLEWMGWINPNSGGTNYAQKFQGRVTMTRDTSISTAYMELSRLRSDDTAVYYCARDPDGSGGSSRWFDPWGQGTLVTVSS
T3 sequence (VL, as listed by the source, chain 2 of 2): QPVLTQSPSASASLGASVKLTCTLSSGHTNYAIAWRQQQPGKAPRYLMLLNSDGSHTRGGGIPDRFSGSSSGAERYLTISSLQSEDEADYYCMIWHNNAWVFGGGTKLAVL
Test: FACS on CD14-gated monocytes from PBMC of healthy donor A, 30 min at 4 C, fluorescently labelled secondary antibody

Does B7 bind?
Result: binds

Target: T2, extracellular domain (ECD) of human …
Test: ELISA: IGSF11-HIS coated, IgG1 antibody titrated, anti-human antibody-HRP and TMB; X-axis nM and Y-axis absorbance per legend paragraph 30

How did the “EC50 (read off the curve)” value turn out when B8 was run?
The value was roughly 0.01 nM.

For B9, which “EC50 (read off the curve)” value is on record?
Its value is roughly 0.009 nM.

How did the “EC50 (read off the curve)” value turn out when B3 was run?
The value was roughly 0.008 nM.

Target: T2, extracellular domain (ECD) of human …
Test: ELISA: IGSF11-HIS coated, IgG1 antibody titrated, anti-human antibody-HRP and TMB; X-axis nM and Y-axis absorbance per legend paragraph 30 [B]

For B1, which “EC50 (read off the curve)” value is on record?
The value was roughly 0.01 nM.

Which “EC50 (read off the curve)” value does the source give for B10 here?
Its value is roughly 0.02 nM.

Target: T2, extracellular domain (ECD) of human …
Test: blocking ELISA (Example 5): IgG titrated and pre-incubated with 200 nM his-tagged IGSF11 ECD, complexes added to immobilised VSIR-Fc, bound IGSF11 detected with anti-hexahistidine-HRP; blocked ligand: VSIR-Fc

For B11, which “IC50 (read off the curve)” value is on record?
The value was roughly 4 nM.

With B12 as the binder, how does the “IC50 (read off the curve)” value read?
Its value is roughly 3 nM.

Target: T2, extracellular domain (ECD) of human …
Test: as above
Remark: another data set of the same source

With B8 as the binder, how does the “IC50 (read off the curve)” value read?
Its value is roughly 2 nM.

With B9 as the binder, how does the “IC50 (read off the curve)” value read?
The value was roughly 2 nM.

For B6, which “IC50 (read off the curve)” value is on record?
Its value is roughly 2 nM.

How did the “IC50 (read off the curve)” value turn out when B3 was run?
The value was roughly 2 nM.

Target: T2, extracellular domain (ECD) of human …
Test: blocking ELISA (Example 5): IgG titrated and pre-incubated with 200 nM his-tagged IGSF11 ECD, complexes added to immobilised VSIR-Fc, bound IGSF11 detected with anti-hexahistidine-HRP; blocked ligand: VSIR-Fc [B]

B1 was tested. Which “IC50 (read off the curve)” value did it give?
Its value is roughly 4 nM.

With B10 as the binder, how does the “IC50 (read off the curve)” value read?
Its value is roughly 5 nM.
